Experimental data as given in publication PMC7497679, “Structure-based design, synthesis, and evaluation of the biological activity of novel phosphoroorganic small molecule IAP antagonists” (Investigational New Drugs, 2020).
Square brackets hold non-standard residues; d marks the D form. 5(6)‑Fam = 5(6)-carboxyfluorescein; Dpm = not defined here

Target: T1, X-linked inhibitor of apoptosis protein (XIAP) BIR3 domain (human)
T1 construct: Neither the catalogue number, the construct limits nor the tags of the Sino Biological protein are stated; also called XIAP BIR3 protein; source: bought: Sino Biological, Beijing, China
Assay: fluorescence polarisation; direct binding: two-fold serial dilutions of XIAP BIR3 domain (2.5 µM to 0.0763 nM) incubated 30 min with probe 4 (2 nM); r.t.; phosphate buffer pH 7.5 with γ-globulin 100 µg/mL and NaN3 0.02%; one site - total binding model
Details: both partners purified

Kd: 49.9 ± 5.37 nM
B1: fluorescent probe H2N-Ala-Val-Pro-Dpm-Ala-Lys(5(6)-Fam)-Lys-NH2 (4) (peptide)
chain: H-AVP[Dpm]AK(5(6)‑Fam)K-NH2
modifications: reading uncertain; also: printed as H2N-Ala-Val-Pro-Dpm-Ala-Lys(5(6)-Fam)-Lys-NH2
